From paper PMC8797470, “Disruption of the pentraxin 3/CD44 interaction as an efficient therapy for triple‐negative breast cancers” (Clinical and Translational Medicine, 2022)

Columns and labels:
CD44 = biological target: T1, CD44 (Homo sapiens, UniProt P16070); assay: Ligand binding ELISA on immobilised CD44; details: HRP-conjugated recombinant proteins; wells coated with 10 μg/ml CD44; 2 h; OD 450 nm
T1 construct: purchased Sino Biological Inc. 12211-H08H
Description: Plate wells (9018; Corning Costar) were coated with 10 μg/ml of CD44 (12211‐H08H; Sino Biological Inc.) in PBS (pH 7.2) and then blocking for 1 h with the blocking buffer including 3% milk in PBS. For the stability binding experiments, the PTX3‐devired biotinylated peptides were pre‐incubated in serum for 1, 2, 4 or 6 h. For the binding experiments, the horseradish peroxidase (HRP)‐conjugated recombinant PTX3, PTX3/N, PTX3/C and PTX3NA or PTX3‐devired biotinylated peptides AD9, GR9, P2rdAD9 and P12rdGR9 (32310; LEADGENE) was responded in the well for 2 h. For the peptide of competition experiments, the PTX3‐devired biotinylated peptides RI37 and GI40 were diluted at the indicated concentration in PBS. After 2 h, PBS washed three times and then incubated with 5 μg/ml HRP‐conjugated PTX3 in PBS for 1 h at room temperature (RT). For the antibody competition experiments, Ab‐10 and Ab‐49 were incubated with 5 μg/ml HRP‐conjugated PTX3 in PBS for 2 h at RT. After incubation, the mixtures was responded in the well for 1 h at RT and then PBS washed three times, tetramethyl benzidine (TMB) was used to detect the bound HRP conjugate. After 15 min, the peroxidase reaction was stopped by adding 0.1 M H2SO4. Next, ELISA plate reader was used to detect the optical densities at 450 nm.

MDA-MB-231 cells = assay: Transwell migration and Matrigel invasion assays; format: cell-based, human; details: treatment in lower well, 18 h
Excerpt: In migration assay, MDA‐MB‐231 cells seeded in 8.0 μm pore polycarbonate membrane inserts (BD Biosciences) in 24‐well plates. In Matrigel invasion assay, inserts were pre‐coated with an appropriate amount of Matrigel first, and the same number of cells seeded on the Matrigel. After cells adhered on the inserts, serum‐free DMEM medium added in the upper wells. Serum‐free medium containing the treatments of TGF‐β1, PTX3, PTX3NA, PTX3/N, PTX3/C, RI37, GI40, AD9, GR9, IgG1κ, PTX3 Ab‐10 or PTX3 Ab‐49 were then mixed into the lower wells of the 24‐well plates. After incubating for 18 h, cells outside the insert were removed by wiping. The inside the inserts were then stained by 4′,6‐diamidino‐2‐phenylindol (DAPI). Fluorescence microscope was used for counting the total number of migrated cells with 200× magnification. Different from the experimental design for the MDA‐MB‐231 cells, the migrated 4T1‐Luc2 cells in the inside of the insert were detected by luciferase activity.

T1 sequence (P16070 21-220 limits assumed): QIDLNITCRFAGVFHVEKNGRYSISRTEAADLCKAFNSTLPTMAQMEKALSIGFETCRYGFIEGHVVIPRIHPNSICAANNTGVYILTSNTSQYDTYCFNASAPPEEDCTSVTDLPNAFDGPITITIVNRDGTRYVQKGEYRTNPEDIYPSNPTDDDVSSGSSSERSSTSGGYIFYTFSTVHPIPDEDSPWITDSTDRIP

binding to immobilised CD44 (CD44): could bind
B1: PTX3/C: recombinant truncated mutant, C‐terminus of PTX3, amino acids 180–381 (protein)
chain: ETAILFPMRSKKIFGSVHPVRPMRLESFSACIWVKATDVLNKTILFSYGTKRNPYEIQLYLSYQSIVFVVGGEENKLVAEAMVSLGRWTHLCGTWNSEEGLTSLWVNGELAATTVEMATGHIVPEGGILQIGQEKNGCCVGGGFDETLAFSGRLTGFNIWDSVLSNEEIRETGGAESCHIRGNIVGWGVTEIQPHGGAQYVS
modifications: left off: HRP conjugate, end not stated, kept
migration and invasion, protein alone (MDA-MB-231 cells): mimics PTX3 to induce
